# Assay results taken from patent US20220177587A1, “METHODS AND USES OF VARIANT CD80 FUSION PROTEINS AND RELATED CONSTRUCTS” (Alpine Immune Sciences, Inc., priority 2018, published 2022).
# Residue numbers refer to the chain shown, from its start. Names and notes keep the numbering of the source.
# B1: E35D/D46E/M47V/V68M/L85Q (protein, UniProt P33681 35-288, looked up, variant E35D D46E M47V V68M L85Q)
# T-lymphocyte activation …: VIHVTKEVKEVATLSCGHNVSVEELAQTRIYWQKDKKMVLTMMSGEVNIWPEYKNRTIFDITNNLSIMILALRPSDEGTYECVVQKYEKDAFKREHLAEVTLSVKADFPTPSISDFEIPTSNIRRIICSTSGGFPEPHLSWLENGEELNAINTTVSQDPETELYAVSSKLDFNMTTNHSFMCLIKYGHLRVNQTFNWNTTKQEHFPDNLLPSWAITLISVNGIFVICCLTYCFAPRCRERRRNERLRRESVRPV
# B2: E35D/M47V/V68M/L85M/Y87D (protein, UniProt P33681 35-288, looked up, variant E35D M47V V68M L85M Y87D)
# T-lymphocyte activation …: B1 T-lymphocyte activation … with E46D, Q85M, Y87D
# B3: E35D/D46V/M47L (protein)
# chain: VIHVTKEVKEVATLSCGHNVSVEELAQTRIYWQKDKKMVLTMMSGVLNIWPEYKNRTIFDITNNLSIVILALRPSDEGTYECVVLKYEKDAFKREHLAEVTLSVKAD
# B4: E35D/M47V/N48K (protein)
# chain: B3 chain with V46D, L47V, N48K
# B5: E35D/M47V/N48K/V68M (protein)
# chain: B3 chain with V46D, L47V, N48K, V68M
# B6: V68M/K89N (protein)
# chain: B3 chain with D35E, V46D, L47M, V68M, K89N
# B7: E35D/M47V/V68M/K89N (protein)
# chain: B3 chain with V46D, L47V, V68M, K89N
# B8: D46V/V68M/L85Q (protein)
# chain: B3 chain with D35E, L47M, V68M, L85Q
# B9: E35D/V68M/K89N (protein)
# chain: B3 chain with V46D, L47M, V68M, K89N
# B10: E35D/D46V/V68M/L85Q (protein)
# chain: B3 chain with L47M, V68M, L85Q
# B11: E35D/D46V/M47L/V68M (protein)
# chain: B3 chain with V68M
# B12: E35D/D46V/V68M (protein)
# chain: B3 chain with L47M, V68M
# B13: H18Y/M47L/A71G/D90G (protein)
# chain: B3 chain with H18Y, D35E, V46D, A71G, D90G
# Target: CD28 (Homo sapiens, UniProt P10747)
# Experiment: Jurkat/IL2 + CHO/OKT3 +/- PD-L1 reporter assay: PD-L1-dependent CD28 costimulation
# Type: cell-based
# Design: host or cells: Jurkat cells expressing an IL-2-luciferase reporter
# Details: Table E13; Jurkat/IL2 + CHO/OKT3/PD-L1; 5.0 nM
# Description: Jurkat cells were then plated at 50 μL/well for a total of 100,000 cells per well.
# To each well, 25 μL of test protein was added to the Jurkat cells. […] The Jurkat cells with test or control proteins were incubated for 15 minutes at room temperature. CHO-derived artificial antigen presenting cells (aAPC) displaying transduced cell surface anti-CD3 single chain Fv (OKT3) (i.e., no PD-L1), or OKT3 and PD-L1 (i.e., +PD-L1), were brought to 0.8×10^6 cells/mL, and 25 μL of cells were added to each well, bringing the final volume of each well to 100 μL. […] Jurkat cells and CHO cells were incubated for 5 hours at 37 degrees Celsius in a humidified 5% CO2 incubation chamber. Plates were then removed from the incubator and acclimated to room temperature for 15 minutes. 100 μL of a cell lysis and luciferase substrate solution (BioGlo luciferase reagent, Promega) were added to each well and the plates were incubated on an orbital shaker for 10 minutes. Luminescence was measured with a 1 second per well integration time using a BioTek Cytation luminometer, and a relative luminescence value (RLU) was determined for each test sample.
row,"Relative Luciferase Units (RLU), CD80 Cone 5.0 nM [RLU]",Molecule
1,1006,B1
2,1181,B2

# Same assay, conditions: Table E21; Jurkat/IL2 + CHO/OKT3/PD-L1; CD80 Conc 5.0 nM
row,"Relative Luciferase Units (RLU), CD80 Conc 5.0 nM [RLU]",Molecule
1,746,B3
2,561,B4
3,747,B5
4,100,B6
5,779,B7
6,267,B8
7,537,B9
8,864,B10
9,681,B11
10,799,B12

# Same assay, conditions: Table E22; Jurkat/IL2 + CHO/OKT3/PD-L1; CD80 Conc 5.0 nM
row,"Relative Luciferase Units (RLU), CD80 Conc 5.0 nM [RLU]",Molecule
1,675,B13

# Target: huCTLA4 (Homo sapiens, UniProt P16410)
# Sequence (P16410 36-223): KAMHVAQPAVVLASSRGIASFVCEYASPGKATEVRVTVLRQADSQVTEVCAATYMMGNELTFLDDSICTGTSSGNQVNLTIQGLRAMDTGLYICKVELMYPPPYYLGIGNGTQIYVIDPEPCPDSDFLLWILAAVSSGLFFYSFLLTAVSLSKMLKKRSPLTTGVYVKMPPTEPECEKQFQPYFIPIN
# Experiment: Flow binding to CHO cells stably expressing CTLA4
# Design: huCTLA4 and huPD-L1, full-length mammalian surface expression constructs were generated; expressed in transfected cells; host or cells: CHO cells, lentiviral transduction, sorted to >98% purity
# Details: Table E11; CHO cells stably expressing CTLA4; 33.3 nM
# Description: (§1) Binding of selected immunomodulatory fusion proteins to cognate binding partners was assessed. […] Cells were sorted in a Bio-Rad S3 Cell Sorter (Bio-Rad Corp., USA) to >98% purity. Jurkat/IL2 reporter cells, which endogenously express CD28, were used to detect binding to CD28.
# (§2) For staining and analysis by flow cytometry, 100,000 cells of appropriate transfected cells were plated in 96-well round bottom plates. Cells were spun down and resuspended in staining buffer (phosphate buffered saline (PBS), 1% bovine serum albumin (BSA), and 0.1% sodium azide) for 20 minutes to block non-specific binding. […] Primary staining was performed on ice for 45 minutes, before washing cells in staining buffer twice. Phycoerythrin (PE)-conjugated anti-human Fc (Jackson ImmunoResearch, USA) was diluted 1:150, added to cells and incubated another 30 minutes on ice. Cells were then washed twice with 150 μL/well stain buffer, fixed in 2% formaldehyde/PBS, and analyzed on Intellicyt flow cytometer (Intellicyt Corp., USA). PE Mean Fluorescence Intensity (MFI) was calculated for each cell type with FlowJo Version 10 software (FlowJo LLC, USA).
# (§3) Binding assays were carried out to assess the specificity and affinity of multivalent proteins to cell-expressed CTLA-4, CD28, and PD-L1 counter structures.
# (§4) The EC50 for binding also was determined.
row,CTLA4 MFI at 33.3 nM,Molecule
1,15533,B1
2,13936,B2

# Same assay, conditions: Table E19; CHO cells stably expressing CTLA4; 33.3 nM
row,CTLA4 MFI at 33.3 nM,Molecule
1,44977,B3
2,47430,B4
3,32913,B5
4,2330,B6
5,29493,B7
6,7567,B8
7,24838,B9
8,32176,B10
9,34319,B11
10,31195,B12

# Same assay, conditions: Table E20; CHO cells stably expressing CTLA4; 33.3 nM
row,CTLA4 MFI at 33.3 nM,Molecule
1,18162,B13

# Target: huPD-L1 (Homo sapiens, UniProt Q9NZQ7)
# Sequence (Q9NZQ7 19-290): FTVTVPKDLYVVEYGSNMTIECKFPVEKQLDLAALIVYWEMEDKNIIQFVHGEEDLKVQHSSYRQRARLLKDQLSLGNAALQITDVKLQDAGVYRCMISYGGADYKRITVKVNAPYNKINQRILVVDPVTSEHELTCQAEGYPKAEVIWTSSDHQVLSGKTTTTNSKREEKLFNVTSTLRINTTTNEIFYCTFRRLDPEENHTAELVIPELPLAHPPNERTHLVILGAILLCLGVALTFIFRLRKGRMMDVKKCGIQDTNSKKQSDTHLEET
# Experiment: Flow binding to CHO cells stably expressing PD-L1
# Design: huCTLA4 and huPD-L1, full-length mammalian surface expression constructs were generated; expressed in transfected cells; host or cells: CHO cells, lentiviral transduction, sorted to >98% purity
# Details: Table E11; CHO cells stably expressing PD-L1; 33.3 nM
# Description: as §1, §2, §3, §4
row,PD-L1 MFI at 33.3 nM,Molecule
1,1723,B1
2,1721,B2

# Same assay, conditions: Table E19; CHO cells stably expressing PD-L1; 33.3 nM
row,PD-L1 MFI at 33.3 nM,Molecule
1,7988,B3
2,4852,B4
3,23479,B5
4,21827,B7
5,26114,B12
